According to publication PMC5779224 (2017):
Values belong to the binder of their own block, whether it stands above or below them.

Columns and labels:
[1] = target: T1, AnkB 28–847 (MBD + partial AI-c) (human, UniProt Q01484-2 28-847); experiment: ITC
T1 chain: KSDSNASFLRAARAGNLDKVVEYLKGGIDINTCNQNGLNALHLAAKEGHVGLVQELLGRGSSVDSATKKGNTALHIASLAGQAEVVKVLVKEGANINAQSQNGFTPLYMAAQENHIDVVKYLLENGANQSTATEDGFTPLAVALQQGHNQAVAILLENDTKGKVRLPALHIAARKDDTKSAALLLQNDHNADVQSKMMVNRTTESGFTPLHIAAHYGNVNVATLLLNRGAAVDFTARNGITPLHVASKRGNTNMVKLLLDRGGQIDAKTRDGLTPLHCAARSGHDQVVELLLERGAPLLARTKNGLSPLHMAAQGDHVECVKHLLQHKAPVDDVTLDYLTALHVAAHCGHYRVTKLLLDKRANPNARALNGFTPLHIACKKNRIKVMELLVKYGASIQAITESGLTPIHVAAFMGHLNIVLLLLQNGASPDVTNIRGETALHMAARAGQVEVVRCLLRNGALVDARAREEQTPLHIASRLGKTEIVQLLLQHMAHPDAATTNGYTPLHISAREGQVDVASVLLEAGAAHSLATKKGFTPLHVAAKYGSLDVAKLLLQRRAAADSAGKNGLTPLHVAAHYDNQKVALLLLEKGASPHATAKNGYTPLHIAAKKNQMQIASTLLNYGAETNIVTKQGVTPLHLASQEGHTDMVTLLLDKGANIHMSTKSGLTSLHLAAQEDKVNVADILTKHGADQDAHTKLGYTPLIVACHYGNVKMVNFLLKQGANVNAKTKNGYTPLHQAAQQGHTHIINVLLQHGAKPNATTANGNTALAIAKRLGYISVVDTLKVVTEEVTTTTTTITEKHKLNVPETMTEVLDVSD

[2] = target: T2, AnkG 38–855 (AnkG MBD-AI-c protein; MBD + partial AI-c) (rat, UniProt O70511-1 38-855); experiment: ITC
T2 chain: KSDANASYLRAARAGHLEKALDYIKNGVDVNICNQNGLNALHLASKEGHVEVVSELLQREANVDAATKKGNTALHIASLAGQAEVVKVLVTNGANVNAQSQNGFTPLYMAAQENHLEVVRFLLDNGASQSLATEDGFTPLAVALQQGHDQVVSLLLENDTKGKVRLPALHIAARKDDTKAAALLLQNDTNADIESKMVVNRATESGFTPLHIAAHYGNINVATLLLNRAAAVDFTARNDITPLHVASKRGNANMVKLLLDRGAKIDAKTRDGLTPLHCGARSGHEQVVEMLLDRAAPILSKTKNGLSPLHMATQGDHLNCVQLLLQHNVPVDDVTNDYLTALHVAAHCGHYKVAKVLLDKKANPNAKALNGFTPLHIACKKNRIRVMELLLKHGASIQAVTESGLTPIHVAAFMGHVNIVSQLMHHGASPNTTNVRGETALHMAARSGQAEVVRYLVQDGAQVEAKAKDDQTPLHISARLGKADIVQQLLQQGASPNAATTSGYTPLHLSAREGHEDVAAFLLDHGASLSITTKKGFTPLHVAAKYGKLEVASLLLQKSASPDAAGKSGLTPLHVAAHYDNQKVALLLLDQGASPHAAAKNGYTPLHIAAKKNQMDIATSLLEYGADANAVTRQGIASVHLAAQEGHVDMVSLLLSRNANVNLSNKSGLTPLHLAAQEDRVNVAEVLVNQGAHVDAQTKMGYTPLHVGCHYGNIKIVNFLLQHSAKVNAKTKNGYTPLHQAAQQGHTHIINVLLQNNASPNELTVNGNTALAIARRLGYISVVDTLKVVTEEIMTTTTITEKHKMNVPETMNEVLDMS

[3] = target: T1, AnkB 28–847 (MBD + partial AI-c); experiment: ITC; AnkB 874-965
[4] = target: T3, AnkB_MBD (AnkB ANK repeats only, aa 28–827) (human, UniProt Q01484-2 28-827); experiment: ITC
T3 chain: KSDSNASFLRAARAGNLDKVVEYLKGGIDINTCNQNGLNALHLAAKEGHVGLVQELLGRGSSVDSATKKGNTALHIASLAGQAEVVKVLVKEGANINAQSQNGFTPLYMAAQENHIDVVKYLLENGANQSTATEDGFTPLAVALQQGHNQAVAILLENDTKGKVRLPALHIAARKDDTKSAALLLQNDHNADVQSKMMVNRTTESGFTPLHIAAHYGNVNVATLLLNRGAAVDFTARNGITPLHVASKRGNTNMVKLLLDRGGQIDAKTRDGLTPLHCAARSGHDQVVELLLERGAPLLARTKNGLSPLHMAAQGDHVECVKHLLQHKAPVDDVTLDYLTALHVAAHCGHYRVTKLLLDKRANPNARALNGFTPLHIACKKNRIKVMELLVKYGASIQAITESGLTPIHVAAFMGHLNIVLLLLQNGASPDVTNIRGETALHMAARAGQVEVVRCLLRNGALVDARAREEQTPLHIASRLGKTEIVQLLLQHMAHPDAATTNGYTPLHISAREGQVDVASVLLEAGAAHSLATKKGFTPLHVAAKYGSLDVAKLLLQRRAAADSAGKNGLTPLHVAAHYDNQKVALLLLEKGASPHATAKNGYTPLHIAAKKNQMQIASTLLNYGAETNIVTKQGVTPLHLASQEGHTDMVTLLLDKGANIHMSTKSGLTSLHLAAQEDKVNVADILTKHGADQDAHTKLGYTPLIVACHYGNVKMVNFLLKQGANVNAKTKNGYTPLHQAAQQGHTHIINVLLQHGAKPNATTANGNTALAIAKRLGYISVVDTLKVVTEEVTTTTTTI

[5] = target: T4, AnkG 38–903 (MBD + AI-c + AI-b) (rat, UniProt O70511-1 38-903); experiment: ITC
T4 chain: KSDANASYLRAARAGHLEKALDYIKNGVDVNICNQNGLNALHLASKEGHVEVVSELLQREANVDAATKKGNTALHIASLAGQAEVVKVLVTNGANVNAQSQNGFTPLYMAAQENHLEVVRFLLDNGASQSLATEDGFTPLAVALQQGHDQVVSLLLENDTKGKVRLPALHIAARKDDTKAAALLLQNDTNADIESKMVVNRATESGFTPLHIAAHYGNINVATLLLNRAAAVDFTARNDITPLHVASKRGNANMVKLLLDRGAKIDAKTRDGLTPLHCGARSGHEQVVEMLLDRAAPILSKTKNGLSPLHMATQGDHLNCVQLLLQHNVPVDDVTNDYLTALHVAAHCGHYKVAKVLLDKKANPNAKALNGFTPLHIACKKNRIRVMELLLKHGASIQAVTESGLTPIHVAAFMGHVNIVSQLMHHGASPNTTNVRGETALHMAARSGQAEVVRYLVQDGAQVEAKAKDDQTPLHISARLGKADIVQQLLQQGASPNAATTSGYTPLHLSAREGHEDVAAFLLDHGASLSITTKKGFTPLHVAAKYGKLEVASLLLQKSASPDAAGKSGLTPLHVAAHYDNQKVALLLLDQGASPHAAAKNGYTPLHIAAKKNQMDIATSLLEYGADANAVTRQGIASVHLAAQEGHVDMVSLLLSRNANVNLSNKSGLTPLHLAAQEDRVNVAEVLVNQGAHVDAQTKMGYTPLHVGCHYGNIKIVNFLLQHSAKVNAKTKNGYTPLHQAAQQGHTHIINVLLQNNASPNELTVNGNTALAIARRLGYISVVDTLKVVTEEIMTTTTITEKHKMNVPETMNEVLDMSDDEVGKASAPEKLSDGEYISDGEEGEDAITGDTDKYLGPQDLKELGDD

[6] = target: T5, AnkB 28–965 (MBD + AI-c + AI-b) (human, UniProt Q01484-2 28-965); experiment: ITC
T5 chain: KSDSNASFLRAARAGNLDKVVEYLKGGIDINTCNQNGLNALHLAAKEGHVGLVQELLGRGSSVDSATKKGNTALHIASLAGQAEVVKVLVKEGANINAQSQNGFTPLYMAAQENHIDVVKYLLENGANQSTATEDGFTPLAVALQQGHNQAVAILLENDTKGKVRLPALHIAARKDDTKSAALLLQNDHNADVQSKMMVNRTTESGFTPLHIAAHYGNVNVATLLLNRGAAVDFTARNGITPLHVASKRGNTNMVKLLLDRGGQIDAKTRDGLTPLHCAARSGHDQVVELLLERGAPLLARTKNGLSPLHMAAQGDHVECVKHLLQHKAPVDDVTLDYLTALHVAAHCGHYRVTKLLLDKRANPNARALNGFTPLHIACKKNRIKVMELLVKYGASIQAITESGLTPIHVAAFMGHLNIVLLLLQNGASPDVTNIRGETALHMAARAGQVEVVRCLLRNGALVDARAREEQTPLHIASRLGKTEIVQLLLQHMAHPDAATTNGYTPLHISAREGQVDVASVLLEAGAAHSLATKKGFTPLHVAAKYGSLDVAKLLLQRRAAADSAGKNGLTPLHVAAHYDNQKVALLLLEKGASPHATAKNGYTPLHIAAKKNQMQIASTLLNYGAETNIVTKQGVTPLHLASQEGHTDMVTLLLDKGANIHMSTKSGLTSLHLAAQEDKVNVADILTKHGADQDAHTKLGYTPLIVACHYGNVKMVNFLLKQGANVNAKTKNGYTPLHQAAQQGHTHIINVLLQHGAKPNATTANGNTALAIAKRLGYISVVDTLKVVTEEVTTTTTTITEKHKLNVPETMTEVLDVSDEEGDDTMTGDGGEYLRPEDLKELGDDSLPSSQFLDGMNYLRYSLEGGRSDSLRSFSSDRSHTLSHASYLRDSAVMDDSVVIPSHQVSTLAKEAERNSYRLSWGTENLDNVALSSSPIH

- Kd [1]: 16 µM
Binder: EDLKELGDDSLPSSQFLDGMNALRYSLEGGRS (domain or fragment) [AnkB_AI-b Tyr886Ala]

- Kd [2]: 3.5 µM
Binder: SDGEEGEDAITGDTDKYLGPQDLKELGDD (domain or fragment) [AnkG_AI-b (aa 875–903)]

- Kd [3]: 17 µM
Binder: SLPSSQFLDGMNYLRYSLEGGRS (domain or fragment) [AnkB AI-b fragment with residues 865 to 873 deleted]

- Kd [1]: 2.7 µM
B1: AnkB 828-896 (protein)
chain: TEKHKLNVPETMTEVLDVSDEEGDDTMTGDGGEYLRPEDLKELGDDSLPSSQFLDGMNYLRYSLEGGRS

- Kd [2]: 1.1 µM
Binder: KASAPEKLSDGEYISDGEEGEDAITGDTDKYLGPQDLKELGDD [AnkG 861-903]

- Kd [1]: 13 µM
Binder: SLPSSQFLDGMNYLRYSLEGGRS [AnkB 874-896]

- Kd [4]: 3.9 µM
Binder: TEKHKLNVPETMTEVQDVSDEEGDD (domain or fragment) [AnkB_AI-c Leu843Gln]

- Kd [2]: 0.25 µM
- Kd [5]: 1.5 µM
- Kd [6]: 5.8 µM
B2: Nav1.2 (aa 1035–1129) (domain or fragment)
chain: KALDEIKPLEDLNNKKDSCISNHTTIEIGKDLNYLKDGNGTTSGIGSSVEKYVVDESDYMSFINNPSLTVTVPIAVGESDFENLNTEEFSSESDM

- Kd [4]: 2.7 µM
Binder: TEKHKLKVPETMTEVLDVSDEEGDD (domain or fragment) [AnkB_AI-c Asn834Lys]

- Kd [4]: 4.4 µM
Binder: TEKHKLNVPETQTEVLDVSDEEGDD (domain or fragment) [AnkB_AI-c Met839Gln]
